According to patent publication US20210284749A1 (ABL BIO, published 2021):

T1: mouse BCMA (1-49) fused to the Fc region of human IgG1 (mouse; human, UniProt O88472 1-49)
T1 construct: Sino Biological Inc. 50076-M01H; also called 50076-M01H; not shown: Fc region of human IgG1
T1 chain: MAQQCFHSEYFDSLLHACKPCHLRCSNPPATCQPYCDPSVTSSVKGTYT

T2: rat BCMA (1-49) fused to the Fc region of human IgG1 (rat; human)
T2 construct: Sino Biological Inc. 80156-R01H; also called 80156-R01H; not shown: Fc region of human IgG1
T2 chain: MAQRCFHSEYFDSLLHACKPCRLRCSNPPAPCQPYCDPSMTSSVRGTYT

T3: human BCMA-Fc/His (1-51) (human, UniProt Q02223 1-51)
T3 construct: also called recombinant human BCMA-Fc/His; recombinant human BCMA-His (Sino Biological Inc.); not shown: Fc region; C-terminal His tag
T3 sequence: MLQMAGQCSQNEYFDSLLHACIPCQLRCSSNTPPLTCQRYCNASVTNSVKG

T4: human monomeric BCMA antigen (human, UniProt Q02223 5-54, limits assumed)
T4 construct: also called recombinant human BCMA antigens
T4 chain: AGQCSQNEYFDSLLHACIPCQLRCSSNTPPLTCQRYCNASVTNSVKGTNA


Legend:
[1] = biological target: T1, mouse BCMA (1-49) fused to the Fc …; assay: ELISA on 100 ng coated mouse BCMA, antibody titrated, anti-human Fab HRP, absorbance 450 nm
Description: (§1) 100 ng of human, monkey, mouse, and rat BCMA antigens prepared in Example 1.1 were coated on the bottom of the plate, and then coated with 3% BSA to block nonspecific binding. Using the selected anti-BCMA IgG antibodies as primary antibodies, and the anti-human Fab HRP (1:20000 dilution) as a secondary antibody, ELISA assay was performed as described in Example 1.3.
(§2) Absorbancies at 450 nm measured with a microplate reader are shown in FIG. 3, and half maximal effective concentrations (EC₅₀) (nM) are shown in Table 9.

[2] = biological target: T5, monkey (Rhesus) BCMA (1-53) fused to the Fc region of human IgG1 (monkey (Rhesus); human, UniProt Q02223 1-54); assay: BLI (Octet), monkey BCMA
T5 construct: Sino Biological Inc. 90103-C02H; also called monkey BCMA; Monkey BCMA (1-53); not shown: Fc region of human IgG1

[3] = biological target: T5, monkey (Rhesus) BCMA (1-53) fused to …; assay: ELISA on 100 ng coated rhesus BCMA, antibody titrated, anti-human Fab HRP, absorbance 450 nm
Description: as §1, §2

[4] = biological target: T2, rat BCMA (1-49) fused to the Fc region …; assay: ELISA on 100 ng coated rat BCMA, antibody titrated, anti-human Fab HRP, absorbance 450 nm
Description: as §1, §2

human BCMA-Fc/His (1-51) = biological target: T3, human BCMA-Fc/His (1-51); assay: BLI (Octet), antigen on Ni-NTA biosensor, IgG in solution
Procedure, shortened: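 Human BCMA-Fc/His loaded at 5 μg/ml onto Ni-NTA biosensors to a 0.5–1.0 nm threshold, with antibody in solution. Association 5 min, dissociation 20 min, 30° C, 1XKB buffer. kon, kdis and KD derived in Octet analysis.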

[5] = biological target: T4, human monomeric BCMA antigen; assay: SPR (Biacore T200), antibody captured on protein A chip, antigen 6.25-100 nM
Description: In particular, the prepared antibodies were diluted with a 1×HPS-EP buffer (GE Healthcare, BR-1006-69). The target antigen-binding affinity analysis was performed using a Biacore T200 (GE Healthcare). The antibodies were flowed onto a protein A chip at a contact time of 60 seconds, a stabilization time of 30 seconds, and a flow rate of 30 μl/min until a capture level reached 128 RU (Response Unit), thereby preparing an antibody-captured protein A chip.
The antigen was sequentially diluted with a 1×HPS-EP buffer, by 2-fold each time, from 100 nM to 6.25 nM, thereby preparing a total of […] samples. The 1×HPS-EP buffer was used as a negative control group (blank).
The prepared antigen was flowed across the antibody-captured protein A chip at a flow rate of 30 μl/min for an association time of 60 seconds, followed by a disassociation phase for 180 seconds. Regeneration was performed with a 10-mM Glycine-HCL (pH 1.5) buffer (GE Healthcare, BR-1003-54) at a flow rate of 30 μl/min for a contact time of 30 seconds.

Binder | binding result [1] | Kd [2] | koff [2] | kon [2] | EC50 (read off the curve) [3] | binding result [4] | Kd (human BCMA-Fc/His (1-51)) | koff (human BCMA-Fc/His (1-51)) | kon (human BCMA-Fc/His (1-51)) | Kd [5] | koff [5] | kon [5] | EC50 (read off the curve) [1] | EC50 (read off the curve) [4]
anti-BCMA IgG antibody 5A6 (antibody, V domains shown, also called 5A6 WT; 5A6 antibody) VH: EVQLLESGGGLVQPGGSLRLSCAASGFTFSNYGVHWVRQAPGKGLEWVSYISYSGGTYYNPSLKSRFTISRDNSKNTLYLQMNSLRAEDTAVYYCARDSDDFGFDYWGQGTLVTVSS VL: QSVLTQPPSASGTPGQRVTISCQGDSLRSYYVNWYQQLPGTAPKLLIYDHSKRPTGVPDRFSGSKSGTSASLAISGLRSEDEADYYCQSYDSSTVVFGGGTKLTVLG | no binding (tested: about 30 µg/ml) | 4.51 nM | 0.00163 s⁻¹ | 361000 M⁻¹ s⁻¹ | ~0.02 µg/mL | no binding (tested: about 30 µg/ml) | 0.0212 nM | 1.08e-05 s⁻¹ | 509000 M⁻¹ s⁻¹ | 62.4 nM | 0.0249 s⁻¹ | 399000 M⁻¹ s⁻¹ | – | –
anti-BCMA IgG antibody 5D5 (antibody, V domains shown, also called 5D5 WT; 5D5 antibody) VH: EVQLLESGGGLVQPGGSLRLSCAASGFTFSDYGLSWVRQAPGKGLEWVSLIDSSGSSTFYADSVKGRFTISRDNSKNTLYLQMNSLRAEDTAVYYCAKEHGLFDSWGQGTLVTVSS VL: EIVLTQSPGTLSLSPGERATLSCKASQDIDDDINWYQQKPGQAPRLLIYDASLRATGIPDRFSGSGSGTDFTLTISRLEPEDFAVYYCQQSLRTPITFGQGTKLEIKR | – | 0.346 nM | 0.000585 s⁻¹ | 1.69e+06 M⁻¹ s⁻¹ | ~0.01 µg/mL | – | 0.114 nM | 0.000105 s⁻¹ | 919000 M⁻¹ s⁻¹ | 22.8 nM | 0.0601 s⁻¹ | 2.63e+06 M⁻¹ s⁻¹ | ~0.01 µg/mL | ~0.02 µg/mL
